From the RNAGym collection of RNA variant scans (doi:10.7554/elife.90254)

B1: LINE1-mini (parent)
chain: GGCAGAGCUCAACACAGCGUGGCAAAGUGGCUGUGGCUAGACUGCC

Variants of: B1
Experiment: self-cleavage, relative activity (ratio to wild type); higher = more cleavage; in vitro, sequencing; the parent is a self-cleaving ribozyme

| Variant | self-cleavage |
| --- | --- |
| A4C A11C | 0.04 |
| C15U G17U | 0.11 |
| G19A A26U | 1.89 |
| C13U A41C | 0.06 |
| G29C G33C | 0.1 |
| C8A A12G | 0.11 |
| G19A C31U | 0.6 |
| C10A G40U | 0.03 |
| A14G A24C | 0.27 |
| G1A A41U | 0.97 |
| A11U U32C | 0.04 |
| A6G G44A | 0.46 |
| A4G C37U | 0.13 |
| G29C A39U | 0.15 |
| G22A U28A | 0.4 |
| A6U C23A | 0.9 |
| C13U C42G | 0.08 |
| G5U G33C | 0.06 |
| C3A G22U | 0.71 |
| G21C C23A | 0.43 |
| G2C G21U | 0.12 |

| Variant | self-cleavage |
| --- | --- |
| A12G G30A | 0.03 |
| U28G A39C | 0.05 |
| C18G G21C | 0.62 |
| G19U G22U | 0.63 |
| A14G A26G | 0.43 |
| U28G C46U | 0.36 |
| G2C G5C | 0.02 |
| G19A U28G | 1.04 |
| G35A A39C | 0.08 |
| G35A A39G | 0.07 |
| G29A G33A | 0.12 |
| U9A G17A | 0.07 |
| C10A A14G | 0.06 |
| U28A U43G | 0.03 |
| G1U C8A | 0.08 |
| G1C A4C | 0.12 |
| C10A G19C | 0.05 |
| C23G G27C | 0.27 |
| U20A C23A | 1.15 |
| A11G C23U | 0.02 |
| A11G C23A | 0.04 |

| Variant | self-cleavage |
| --- | --- |
| A11C U34G | 0.04 |
| U34A A41C | 0.03 |
| A14U G29U | 0.5 |
| U28C C31G | 0.16 |
| U34C C37G | 0.04 |
| G2C G40C | 0.07 |
| G21U A24U | 1.01 |
| A14G C23A | 0.53 |
| A12G A25C | 0.16 |
| C13G U38A | 0.05 |
| U28C G30C | 0.64 |
| U9G G27U | 0.06 |
| C13U G40C | 0.08 |
| C8U C15U | 0.25 |
| C8U C46U | 0.56 |
| G27A G29U | 0.5 |
| C10G G35C | 0.02 |
| G2C A16U | 0.04 |
| A26C G27C | 0.9 |
| A6G C46U | 0.09 |
| G2U C3U | 0.37 |

| Variant | self-cleavage |
| --- | --- |
| A11U G27C | 0.14 |
| U20G A41U | 0.42 |
| G5A C10A | 0.04 |
| C15A A41G | 0.06 |
| A12U G21U | 0.34 |
| G2A C8U | 0.43 |
| G2C G35U | 0.23 |
| G22C U34A | 0.09 |
| A12U C23U | 0.34 |
| A6G C13U | 0.15 |
| U9G U38G | 0.01 |
| G22A G33A | 0.52 |
| G22A G33C | 0.05 |
| A11C G36A | 0.04 |
| C23A C37G | 0.02 |
| C3U C8A | 0.38 |
| C10A G21U | 0.04 |
| A26G G40U | 0.15 |
| A26G G40C | 0.08 |
| C3A A12U | 0.57 |
| G2U G30U | 0.1 |
